Reference: publication PMC8262869, “The DnaK/DnaJ Chaperone System Enables RNA Polymerase-DksA Complex Formation in Salmonella Experiencing Oxidative Stress” (mBio, 2021)

B1: GST-DnaK (natural protein)
chain: not shown
notes: DnaK (Hsp70), Salmonella enterica serovar Typhimurium; dnaK cloned into BamHI and XhoI sites of pGEX-6P-1; source: E. coli BL21(DE3), purified (glutathione-Sepharose 4B)

What was measured:
DnaJ C268A-6×His = biological target: T1, DnaJ C268A-6×His (Salmonella enterica serovar Typhimurium, UniProt P0A1G7 1-379, C268A); experiment: pull-down; GST fusion (bait) on glutathione-Sepharose 4B beads, 50 mM Tris-HCl pH 7.5, 4°C, 2 h with C-terminally 6×His-tagged prey; wash 50 mM NaCl, elution 500 mM NaCl; anti-6×His immunoblot; details: both partners purified
T1 construct: DnaJ, Salmonella enterica serovar Typhimurium; point mutant of full-length dnaJ in pET-22b(+); not shown: 6×His, C-terminal, kept

DnaJ C186H-6×His = biological target: T2, DnaJ C186H-6×His (Salmonella enterica serovar Typhimurium, UniProt P0A1G7 1-379, C186H); experiment: as above; details: both partners purified
T2 construct: DnaJ, Salmonella enterica serovar Typhimurium; point mutant of full-length dnaJ in pET-22b(+); not shown: 6×His, C-terminal, kept

DnaJ ΔZn1-6×His = biological target: T3, DnaJ ΔZn1-6×His (Salmonella enterica serovar Typhimurium, UniProt P0A1G7 1-379, C147S | C150S | C200S | C203S); experiment: as above; details: both partners purified
T3 construct: DnaJ, Salmonella enterica serovar Typhimurium; also called C147S C150S C200S C203S; not shown: 6×His, C-terminal, kept

DnaJ H33Q-6×His = biological target: T4, DnaJ H33Q-6×His (Salmonella enterica serovar Typhimurium, UniProt P0A1G7 1-379, H33Q); experiment: as above; details: both partners purified
T4 construct: DnaJ, Salmonella enterica serovar Typhimurium; point mutant of full-length dnaJ in pET-22b(+); also called DnaJ H33Q recombinant variant; not shown: 6×His, C-terminal, kept

[1] = biological target: E. coli holoenzyme RNA polymerase (E. coli, UniProt P0A7Z4 1-329; P0A8V2 1-1342); experiment: cell-based or functional assay
GST-DnaK = biological target: B1; experiment: pull-down; GST fusion (bait) on glutathione-Sepharose 4B beads, 50 mM Tris-HCl pH 7.5, 4°C, 2 h with C-terminally 6×His-tagged prey; wash 50 mM NaCl, elution 500 mM NaCl; anti-6×His immunoblot; details: both partners purified
GST-DnaK T199A = biological target: T5, GST-DnaK T199A (Salmonella enterica serovar Typhimurium, UniProt Q56073 1-638, T199A); experiment: as above; details: both partners purified
T5 construct: DnaK (Hsp70), Salmonella enterica serovar Typhimurium; point mutant of dnaK in pGEX-6P-1; also called recombinant DnaK T199A variant; source: E. coli BL21(DE3), purified (glutathione-Sepharose 4B)

| Binder | binding result (DnaJ C268A-6×His) | binding result (DnaJ C186H-6×His) | binding result (DnaJ ΔZn1-6×His) | binding result (DnaJ H33Q-6×His) | livJ in vitro transcription (qRT-PCR): 5 μM oxidized DksA (GST tag removed), 5 nM RNA polymerase, 50 nM DnaJ, upon addition of 500 nM untagged DnaK [1] [fold] | binding result (GST-DnaK) | binding result (GST-DnaK T199A) |
| --- | --- | --- | --- | --- | --- | --- | --- |
| oxidized GST-DksA (natural protein, cysteine residues oxidized (disulfide-bonded) by treatment with H2O2; positions not given, DksA, Salmonella enterica serovar Typhimurium; dksA cloned into BamHI and XhoI sites of pGEX-6P-1; For the in vitro transcription assays the GST tag was removed with PreScission protease and oxidation was with 1 mM H2O2; also called oxidized DksA; source: E. coli BL21(DE3), purified (glutathione-Sepharose 4B); treated with 100 μM H2O2 for 1 h at 37°C) MQEGQNRKTSSLSILAIAGVEPYQEKPGEEYMNEAQLSHFKRILEAWRNQLRDEVDRTVTHMQDEAANFPDPVDRAAQEEEFSLELRNRDRERKLIKKIEKTLKKVEDEDFGYCESCGVEIGIRRLEARPTADLCIDCKTLAEIREKQMAG | binds | binds | binds | binds | > 10 | – | – |
| B1 | – | – | – | binds | – | – | – |
| DnaJ-6×His (natural protein, Salmonella enterica serovar Typhimurium, UniProt P0A1G7 1-379, looked up, DnaJ, Salmonella enterica serovar Typhimurium; full-length dnaJ in NdeI and XhoI sites of pET-22b(+); also called wild-type DnaJ protein; C-terminally 6×His-tagged DnaJ; not shown: 6×His, C-terminal, kept) MAKRDYYEILGVSKTAEEREIKKAYKRLAMKYHPDRNQGDKEAEAKFKEIKEAYEVLTDAQKRAAYDQYGHAAFEQGGMGGGFGGGFNGGADFSDIFGDVFGDIFGGGRGRQRAARGADLRYNMDLTLEEAVRGVTKEIRIPTLEECDVCHGSGAKAGTQPQTCPTCHGSGQVQMRQGFFAVQQTCPHCQGRGTLIKDPCHKCHGHGRVEKSKTLSVKIPAGVDTGDRIRLAGEGEAGEHGAPAGDLYVQVQVKQHPIFEREGNNLYCEVPINFAMAALGGEIEVPTLDGRVMLKVPSETQTGKLFRMRGKGVKSVRGGAQGDLLCRVVVETPVGLSEKQKQLLKDLQESFGGPTGEKNSPRSKSFFDGVKKFFDDLTR | – | – | – | – | – | binds | binds |
